Source: the Human Domainome abundance scans (Beltran et al. 2025)
± gives the uncertainty stated by the source.

B1: Tumor protein p73, residues 487 to 549; numbered along this chain, O15350 (parent)
chain: YHADPSLVSFLTGLGCPNCIEYFTSQGLQSIYHLQNLTIEDLGALKIPEQYRMTIWRGLQDLK

Variants of: B1
Test: abundance fitness (aPCA) (normalised: wild type 0, dead -1); higher = more abundant; growth selection in yeast, the domain comes from the species named
Conditions: Homo sapiens

Q: With YHADPSLVSFLTELGCPNCIEYFTSQGLQSIYHLQNLTIEDLGALKIPEQYRMTIWRGLQDLK [G13E] as the variant, how does the abundance fitness read?
A: 0.047 ± 0.052

Q: For YHADPSLVSFLTALGCPNCIEYFTSQGLQSIYHLQNLTIEDLGALKIPEQYRMTIWRGLQDLK [G13A], which abundance fitness is on record?
A: -0.021 ± 0.035

Q: For YHADPSLVSFLTGLGCPNCIEYFTSQGLQSIYHLQNLTIEDLGALKIPEQYRMTIWRELQDLK [G58E], which abundance fitness is on record?
A: 0.014 ± 0.033

Q: With YHADPSLVSFLTGLGCPNCIEYFTSQGLQSIYHLQNLTIEDLGMLKIPEQYRMTIWRGLQDLK [A44M] as the variant, how does the abundance fitness read?
A: 0.006 ± 0.05

Q: Which abundance fitness does the source give for YHADPSLVSFLTGLGCPNCIEYFTSQGLQSIYHLQNLTIEDLGALKIPEQYRMTIWYGLQDLK [R57Y] here?
A: -0.023 ± 0.056

Q: With YHADPSLVSFLTGLGCPNKIEYFTSQGLQSIYHLQNLTIEDLGALKIPEQYRMTIWRGLQDLK [C19K] as the variant, how does the abundance fitness read?
A: -0.726 ± 0.088

Q: With YHADPSLVSFLTGLGCPNCIEYFTSQGLQSVYHLQNLTIEDLGALKIPEQYRMTIWRGLQDLK [I31V] as the variant, how does the abundance fitness read?
A: 0.042 ± 0.036

Q: For YHADPSLVSFLTGLGCPNCIEYFTSQGLQSDYHLQNLTIEDLGALKIPEQYRMTIWRGLQDLK [I31D], which abundance fitness is on record?
A: -0.269 ± 0.068

Q: For YHADPSLVSFLTGLGCPNCIEYFTSQGLQSAYHLQNLTIEDLGALKIPEQYRMTIWRGLQDLK [I31A], which abundance fitness is on record?
A: 0.004 ± 0.043

Q: For YHADPSLVSFLTGLGCPNCIEYFTSQGLQSPYHLQNLTIEDLGALKIPEQYRMTIWRGLQDLK [I31P], which abundance fitness is on record?
A: -0.048 ± 0.052

Q: Which abundance fitness does the source give for YHADPSLVSFLTGLFCPNCIEYFTSQGLQSIYHLQNLTIEDLGALKIPEQYRMTIWRGLQDLK [G15F] here?
A: -0.508 ± 0.097

Q: With YHADPSLVSFLTGLVCPNCIEYFTSQGLQSIYHLQNLTIEDLGALKIPEQYRMTIWRGLQDLK [G15V] as the variant, how does the abundance fitness read?
A: -0.606 ± 0.059

Q: For YHADPQLVSFLTGLGCPNCIEYFTSQGLQSIYHLQNLTIEDLGALKIPEQYRMTIWRGLQDLK [S6Q], which abundance fitness is on record?
A: 0.064 ± 0.066

Q: For YHADPWLVSFLTGLGCPNCIEYFTSQGLQSIYHLQNLTIEDLGALKIPEQYRMTIWRGLQDLK [S6W], which abundance fitness is on record?
A: -0.212 ± 0.061

Q: Which abundance fitness does the source give for YHADPSLVSFLTGLGCPNCIEYFTSQGLQSIYHLQNLTIEDLGALKSPEQYRMTIWRGLQDLK [I47S] here?
A: -0.95 ± 0.083

Q: For YHADPSLVSFLTGLGCPNCIEYFTSQGLQSIYHLQNLTIEDLGALKWPEQYRMTIWRGLQDLK [I47W], which abundance fitness is on record?
A: -0.925 ± 0.053

Q: With YHADPSLVSFLTGLGCPNCIEYFTSQGLQSIYHLQNLTIEDLGALKTPEQYRMTIWRGLQDLK [I47T] as the variant, how does the abundance fitness read?
A: -0.431 ± 0.061

Q: For YHADPSLVSFLTGLGCPNCIEYFTSQGLQSIYHLQNLTIEDLGALKIPEQYRMTRWRGLQDLK [I55R], which abundance fitness is on record?
A: -0.807 ± 0.056

Q: For YHADPSLVSFLTGLGCPNCIEYFTSQGLQSIYHLQNLTIEDLGALKIPEQYRMTAWRGLQDLK [I55A], which abundance fitness is on record?
A: -0.918 ± 0.11

Q: Which abundance fitness does the source give for YHADTSLVSFLTGLGCPNCIEYFTSQGLQSIYHLQNLTIEDLGALKIPEQYRMTIWRGLQDLK [P5T] here?
A: 0.211 ± 0.04

Q: With YHADPSLVSFLTGLGCPNCIEYFTQQGLQSIYHLQNLTIEDLGALKIPEQYRMTIWRGLQDLK [S25Q] as the variant, how does the abundance fitness read?
A: 0.051 ± 0.043

Q: For YHADPSLVSFLTGLGCPNCIEYFTNQGLQSIYHLQNLTIEDLGALKIPEQYRMTIWRGLQDLK [S25N], which abundance fitness is on record?
A: 0.001 ± 0.1

Q: For YHADPSLVSFLTGLGCPNCIEYFTIQGLQSIYHLQNLTIEDLGALKIPEQYRMTIWRGLQDLK [S25I], which abundance fitness is on record?
A: -0.195 ± 0.054

Q: Which abundance fitness does the source give for YHADPSLVSFLTGLGCPNCIEYFTSQGLQSIYHLQNLTIMDLGALKIPEQYRMTIWRGLQDLK [E40M] here?
A: -0.127 ± 0.054

Q: With YHADPSLVSFLTGLGCPNCIEYFTSQGLQSIYHLQNLTIEDLGALKIPEQYRMTIWRGLVDLK [Q60V] as the variant, how does the abundance fitness read?
A: -0.041 ± 0.034

Q: For YHADPSLVSFLTGLGCPNCIEYFTSQGLQSIYHLQNLTIEDLGALKIPEQYRMTIWRGLCDLK [Q60C], which abundance fitness is on record?
A: -0.102 ± 0.075

Q: Which abundance fitness does the source give for YHADPSLVSFLTGLGCPNCLEYFTSQGLQSIYHLQNLTIEDLGALKIPEQYRMTIWRGLQDLK [I20L] here?
A: 0.038 ± 0.031

Q: With YHADPSLVSFLTGLGCPNCIEYFTSQGLQSIYELQNLTIEDLGALKIPEQYRMTIWRGLQDLK [H33E] as the variant, how does the abundance fitness read?
A: 0.003 ± 0.041

Q: For YHADPSLVSFLTGLGCPNCIEYFTSQGLQSIYCLQNLTIEDLGALKIPEQYRMTIWRGLQDLK [H33C], which abundance fitness is on record?
A: -0.051 ± 0.061

Q: Which abundance fitness does the source give for YHADPSLVSFLTGLGCPNCIEYFTSQGLQSIYHLQNLTIEDLGADKIPEQYRMTIWRGLQDLK [L45D] here?
A: -0.609 ± 0.15

Q: For YHADPSLVSRLTGLGCPNCIEYFTSQGLQSIYHLQNLTIEDLGALKIPEQYRMTIWRGLQDLK [F10R], which abundance fitness is on record?
A: -0.962 ± 0.079

Q: With YHADPSLVSFLTGLGCPNCIEYFTSQGLQSIYHLQNLTIEDLGALKIPEQYRMFIWRGLQDLK [T54F] as the variant, how does the abundance fitness read?
A: -0.362 ± 0.14

Q: Which abundance fitness does the source give for YHADPSLVSFLTGLGCPNCIEYFTSQGLQSIYHLQNLTIEDLGALKIPEQYRMTIWRGLQDLL [K63L] here?
A: -0.261 ± 0.087

Q: For YHADPSLVSFLTGLGCPNCIEYFTSQGLQSIYHLQQLTIEDLGALKIPEQYRMTIWRGLQDLK [N36Q], which abundance fitness is on record?
A: 0.022 ± 0.038

Q: Which abundance fitness does the source give for YHADPSLVSFLTGLGCPNCIEYFTSQGLQSIYHLQPLTIEDLGALKIPEQYRMTIWRGLQDLK [N36P] here?
A: -0.053 ± 0.078

Q: For YHADPSLVSFLTGLGCPNCIEYFTSQGLQSIYHLQSLTIEDLGALKIPEQYRMTIWRGLQDLK [N36S], which abundance fitness is on record?
A: 0.046 ± 0.039

Q: With YHADPSLVSFLTGLGCPNCIEIFTSQGLQSIYHLQNLTIEDLGALKIPEQYRMTIWRGLQDLK [Y22I] as the variant, how does the abundance fitness read?
A: -0.108 ± 0.12

Q: With YHADPSLVSFLTGLGCPNCIEVFTSQGLQSIYHLQNLTIEDLGALKIPEQYRMTIWRGLQDLK [Y22V] as the variant, how does the abundance fitness read?
A: -0.079 ± 0.038

Q: For YHADPSLVSFLTGLGCPNCIEWFTSQGLQSIYHLQNLTIEDLGALKIPEQYRMTIWRGLQDLK [Y22W], which abundance fitness is on record?
A: -0.261 ± 0.041

Q: Which abundance fitness does the source give for YHADPSLVSFLTGLGCPNCIEYFTSQGLQSIYHLQNLTIEDLGALKIPEQYRMTIWRGSQDLK [L59S] here?
A: -0.265 ± 0.039

Q: Which abundance fitness does the source give for YHADPSLVSFLTGLGCPNCIEYFTSQGLQSIYHLQNLTIEDLGALKIPEQYRMTIWRGVQDLK [L59V] here?
A: 0.046 ± 0.056

Q: Which abundance fitness does the source give for YHADPSLVSFLTGLGCPNCIEYFTSQGLQSIYHLQNLTIEDLGALKIPEQYCMTIWRGLQDLK [R52C] here?
A: -0.131 ± 0.11

Q: Which abundance fitness does the source give for YHADPSLVSFLTGLGCPNCIEYFTSQGLQSIYHLQNLTIEDLGALKIPEQYLMTIWRGLQDLK [R52L] here?
A: 0.004 ± 0.042
